Assay results as given in patent publication US20240181068A1, “SELECTIVE NEUTRAL PH INHIBITOR OF CATHEPSIN B” (The Regents of the University of California, priority 2021, published 2024).
Values belong to the molecule of their own block, whether it stands above or below them. Peptide text beside a SMILES is read from it. * marks the point of attachment. AOMK = acyloxymethyl ketone warhead replacing the C-terminal carboxyl; AMC = Cc1cc(=O)oc2cc(N*)ccc12; Cbz = O=C(OCc1ccccc1)*

Assays:
[1] = target: T1, cathepsin B in human neuroblastoma cells (SHSY5Y) (Homo sapiens, UniProt P07858); experiment: Neuroblastoma cells incubated with inhibitors, then cathepsin B assay; format: cell-based; conditions: cells incubated with 50 μM inhibitor for 6 hrs, washed, homogenate assayed with Z-Arg-Arg-AMC
T1 construct: endogenous in cells; host or cells: SH-SY5Y human neuroblastoma cells
Method: Cathepsin B in human neuroblastoma cells treated with inhibitors. Neuroblastoma cells (human SHSY5Y) were grown in media consisting of 50% MEMalpha, 50% F12-K, 10% heat-inactivated FBS at 37° C. in an atmosphere of 95% air and 5% CO2. Firstly, cell homogenates were prepared by collection of cells in 0.32 M sucrose and freeze-thawing. Secondly, cells were incubated with Z-Arg-Lys-AOMK or CA-074Me for 6 hours at 37° C., and washed 3 times in phosphate-buffered saline and homogenates were prepared in 0.32 M sucrose with freeze-thawing. CA-074Me is a methyl ester form of the active CA-074 selective inhibitor of cathepsin B (70); CA-074Me penetrates the cell and is converted by intracellular esterases to CA-074.
Cathepsin B activity in the homogenates were monitored with Z-Arg-Arg-AMC substrate (60 μM) with buffer conditions of 40 mM citrate-phosphate, pH 5.5, 5 mM DTT, 1 mM EDTA, 100 mM NaCl, and 1.2% DMSO, followed by incubation at 37° C. for 30 minutes and reading of AMC fluorescence. CA-074-senstive activity was monitored to indicate cathepsin B activity, since CA-074 is a selective inhibitor of this enzyme (70). Protein content was measured in homogenates with the DC protein assay kit. Cathepsin B specific activity was calculated as nmol AMC/μg/min, and reported as the mean±SD (with analyses for statistical significance, p<0.05 by student's t-test).

cathepsin B = target: T2, cathepsin B (Homo sapiens, UniProt P07858); experiment: pH profile of cathepsin B activity with peptide-AMC substrates; format: biochemical; conditions: substrate 60 μM
T2 construct: purchased R&D Systems 953-CY-010
Method: Cathepsin B activity assayed by fluorogenic peptide substrates. Proteolytic assays of cathepsin B were conducted with Z-Arg-Lys-AMC and Z-Gly-Lys-AMC substrates in 50 mM citrate phosphate at pH 7.2 or pH 4.6, 1 mM EDTA, 100 mM NaCl, and 5 mM DTT. Assays with Z-Phe-Arg-AMC substrate were conducted under identical conditions and included 0.01% Tween20. Assays were performed in 384 well plates at 25° C. in a total volume of 30 μL. Fluorescence was quantified by a Biotek Synergy HTX microplate plate reader with excitation 360 nm, emission 460 nm, gain 50, top optics and read height 1 mm. Proteolytic activity is reported as relative fluorescent units per sec (RFU/sec), and was calculated using the highest slope recorded for 10 consecutive readings. Fluorescent readings were taken in 46 sec intervals and therefore activity is calculated over a total of 460 sec. To ensure that initial velocity is assessed, only readings within the first 30 minutes of the reaction were analyzed. RFU/sec readings were converted to enzyme specific activity of pmol/min/μg using the conversion factor of 1227 RFU per μM AMC.
To generate the pH profile of cathepsin B activity with the substrates Z-Arg-Lys-AMC, Z-Glu-Lys-AMC, and Z-Phe-Arg-AMC, 60 μM of each substrate and 0.04 ng/ul of cathepsin B were assayed in citrate phosphate buffers ranging from pH 2.2 to 7.4 in increments of 0.4 pH units, including pH 7.2. […]

cathepsin L = target: T3, cathepsin L (Homo sapiens, UniProt P07711); experiment: Specificity of peptide-AMC substrates: cathepsin L; format: biochemical
T3 construct: purchased R&D Systems 952-CY-010

cathepsin V = target: T4, cathepsin V (Homo sapiens, UniProt O60911); experiment: Specificity of peptide-AMC substrates: cathepsin V; format: biochemical
T4 construct: purchased R&D Systems 1080-CY-010

[2] = target: Recombinant human cathepsin B (R&D #953-CY-010) (human) (UniProt P07858); experiment: cell-based or functional assay
[3] = target: Recombinant human cathepsin B (R&D #953-CY-010) (human) (UniProt P07858); experiment: ratio of KI values, fluorogenic cathepsin B assay
[4] = target: Recombinant human cathepsin B (R&D #953-CY-010) (human) (UniProt P07858); experiment: inactivation kinetics, fluorogenic cathepsin B assay with Z-Phe-Arg-AMC, pH 4.6
[5] = target: Recombinant human cathepsin B (R&D #953-CY-010) (human) (UniProt P07858); experiment: inactivation kinetics, fluorogenic cathepsin B assay with Z-Phe-Arg-AMC, pH 7.2
cathepsin X = cathepsin X (UniProt Q9UBR2 24-303, limits assumed); experiment: cell-based or functional assay
[6] = target: cathepsin C (R&D #1071-CY-010) (human, UniProt P53634 25-463); experiment: cell-based or functional assay
[7] = target: T5, cathepsin H (R&D #75116-CY-010) (human, UniProt P09668 116-335); experiment: cell-based or functional assay
T5 sequence (looked up): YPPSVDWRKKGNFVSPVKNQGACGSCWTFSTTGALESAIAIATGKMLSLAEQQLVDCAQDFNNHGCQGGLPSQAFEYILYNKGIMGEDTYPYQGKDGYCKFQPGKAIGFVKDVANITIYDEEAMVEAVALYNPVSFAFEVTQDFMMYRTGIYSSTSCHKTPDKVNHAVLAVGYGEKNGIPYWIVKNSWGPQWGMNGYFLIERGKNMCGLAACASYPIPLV

[8] = target: T6, cathepsin K (Abcam #ab157067) (human, UniProt P43235 115-329, limits assumed); experiment: cell-based or functional assay
T6 sequence (looked up): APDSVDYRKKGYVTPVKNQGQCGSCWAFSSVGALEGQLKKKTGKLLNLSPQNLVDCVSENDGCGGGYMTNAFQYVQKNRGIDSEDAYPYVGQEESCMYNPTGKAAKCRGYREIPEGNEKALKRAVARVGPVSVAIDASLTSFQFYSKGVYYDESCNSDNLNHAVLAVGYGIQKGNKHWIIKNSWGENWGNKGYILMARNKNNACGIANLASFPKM

[9] = target: cathepsin L (R&D #952-CY-010) (human, UniProt P07711 114-333); experiment: cell-based or functional assay
[10] = target: cathepsin S (R&D #1183-CY-010) (human, UniProt P25774 17-331); experiment: cell-based or functional assay
[11] = target: T7, cathepsin V (R&D #1080-CY-010) (human, UniProt O60911 18-334); experiment: cell-based or functional assay
T7 sequence (looked up): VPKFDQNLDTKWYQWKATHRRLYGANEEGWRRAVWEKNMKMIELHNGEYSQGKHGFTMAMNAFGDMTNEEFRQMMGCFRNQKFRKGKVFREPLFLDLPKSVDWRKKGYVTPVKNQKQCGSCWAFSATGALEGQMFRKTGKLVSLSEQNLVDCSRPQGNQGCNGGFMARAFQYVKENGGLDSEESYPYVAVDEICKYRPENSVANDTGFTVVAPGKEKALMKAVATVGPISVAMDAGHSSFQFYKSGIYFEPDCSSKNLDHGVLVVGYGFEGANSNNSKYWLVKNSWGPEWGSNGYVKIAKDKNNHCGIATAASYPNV

cathepsin C (R&D #1071-CY-010), sequence (P53634 25-463 limits assumed): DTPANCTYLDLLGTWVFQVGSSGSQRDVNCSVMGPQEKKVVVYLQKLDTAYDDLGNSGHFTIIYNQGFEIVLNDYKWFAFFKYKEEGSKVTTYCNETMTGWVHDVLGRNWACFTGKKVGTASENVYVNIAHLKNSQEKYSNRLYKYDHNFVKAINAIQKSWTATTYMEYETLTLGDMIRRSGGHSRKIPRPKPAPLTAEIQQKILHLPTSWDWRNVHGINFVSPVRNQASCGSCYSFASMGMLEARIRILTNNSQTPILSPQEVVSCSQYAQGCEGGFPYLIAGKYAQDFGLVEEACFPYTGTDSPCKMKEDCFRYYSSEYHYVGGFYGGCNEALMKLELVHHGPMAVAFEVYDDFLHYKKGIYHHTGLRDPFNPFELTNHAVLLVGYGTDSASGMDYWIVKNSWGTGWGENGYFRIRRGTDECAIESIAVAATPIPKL
cathepsin L (R&D #952-CY-010), sequence (P07711 114-333): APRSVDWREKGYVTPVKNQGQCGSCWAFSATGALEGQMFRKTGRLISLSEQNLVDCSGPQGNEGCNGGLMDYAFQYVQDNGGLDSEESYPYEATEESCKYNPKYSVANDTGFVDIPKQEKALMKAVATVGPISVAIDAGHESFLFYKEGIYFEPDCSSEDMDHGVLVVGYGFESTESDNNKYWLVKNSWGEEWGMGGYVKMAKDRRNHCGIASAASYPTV
T3 sequence (P07711 114-333): as above
cathepsin S (R&D #1183-CY-010), sequence (P25774 17-331 limits assumed): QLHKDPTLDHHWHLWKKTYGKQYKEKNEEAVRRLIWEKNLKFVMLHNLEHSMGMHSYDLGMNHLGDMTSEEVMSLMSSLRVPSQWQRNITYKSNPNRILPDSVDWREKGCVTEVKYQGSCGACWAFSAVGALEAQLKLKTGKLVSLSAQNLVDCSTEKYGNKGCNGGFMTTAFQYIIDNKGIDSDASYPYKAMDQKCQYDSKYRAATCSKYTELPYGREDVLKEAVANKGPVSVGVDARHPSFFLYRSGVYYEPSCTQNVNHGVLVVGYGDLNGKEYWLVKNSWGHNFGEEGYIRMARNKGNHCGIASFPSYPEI
cathepsin X, sequence (Q9UBR2 24-303 limits assumed): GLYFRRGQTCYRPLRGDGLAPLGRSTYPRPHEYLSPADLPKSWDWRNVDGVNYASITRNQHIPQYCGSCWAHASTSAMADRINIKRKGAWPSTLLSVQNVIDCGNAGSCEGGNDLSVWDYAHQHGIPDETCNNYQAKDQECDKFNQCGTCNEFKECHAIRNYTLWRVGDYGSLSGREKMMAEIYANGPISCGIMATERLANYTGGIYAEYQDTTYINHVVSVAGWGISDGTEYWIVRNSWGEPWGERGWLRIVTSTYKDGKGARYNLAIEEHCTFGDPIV

Molecule: CCCNC(=O)[C@H]1O[C@@H]1C(=O)N[C@H](C(=O)N1CCC[C@H]1C(=O)OC)[C@@H](C)CC [CA-074Me, reference compound]
- inhibition of cellular cathepsin B activity [1]: completely inhibited

- pH of maximal hydrolysis by cathepsin B (cathepsin B): 7.8
- substrate activity for cathepsin L (cathepsin L; pH 7.2 (data not shown)): no activity
- substrate activity for cathepsin V (cathepsin V; pH 7.2 (data not shown)): no activity
Molecule: Cc1cc(=O)oc2cc(NC(=O)[C@H](CCCCN)NC(=O)[C@H](CCCNC(=N)N)NC(=O)OCc3ccccc3)ccc12 [Z-Arg-Lys-AMC] (Cbz-Arg-Lys-{AMC})

- pH of maximal hydrolysis by cathepsin B (cathepsin B): 4.6
- substrate activity for cathepsin L (cathepsin L; pH 4.6): no activity
- substrate activity for cathepsin V (cathepsin V; pH 4.6): no activity
Molecule: Cc1cc(=O)oc2cc(NC(=O)[C@H](CCCCN)NC(=O)[C@H](CCC(=O)O)NC(=O)OCc3ccccc3)ccc12 [Z-Glu-Lys-AMC] (Cbz-Glu-Lys-{AMC})

- substrate activity for cathepsin L (cathepsin L; pH 4.6): cleaved
- substrate activity for cathepsin V (cathepsin V; pH 4.6): cleaved
Molecule: Cc1cc(=O)oc2cc(NC(=O)C(CCCN=C(N)N)NC(=O)C(Cc3ccccc3)NC(=O)OCc3ccccc3)ccc12 (stereo not drawn) [Z-Phe-Arg-AMC] (Cbz-Phe-Arg-{AMC}; configuration not given here)

- IC50 of inhibition of cathepsin B activity (Z-Phe-Arg-AMC substrate, no pre-incubation), pH 4.6 [2]: 1500 nM
- IC50 of inhibition of cathepsin B activity (Z-Phe-Arg-AMC substrate, no pre-incubation), pH 7.2 [2]: 20 nM
- IC50 of inhibition of cathepsin B activity, pH 6.8 (data not shown) [2]: 22 nM
- IC50 of inhibition of enzyme activity, pH 4.6 [2]: 1500 nM
- IC50 of inhibition of enzyme activity, pH 7.2 [2]: 20 nM
- fold greater potency (IC50) for cathepsin B than for cathepsin C, pH 7.2 [2]: 43 fold
- fold greater potency (IC50) for cathepsin B than for cathepsin S, pH 7.2 [2]: 110 fold
- fold greater potency (IC50) for cathepsin B than for cathepsin V, pH 7.2 [2]: 22 fold
- reduction of cathepsin B activity (Z-Phe-Arg-AMC substrate) by 64 nM inhibitor, pH 4.6 [2]: 5%
- reduction of cathepsin B activity (Z-Phe-Arg-AMC substrate) by 64 nM inhibitor, pH 7.2 [2]: 93%
- fold greater potency (KI) at pH 7.2 compared to pH 4.6 [3]: 115 fold
- Kinact/KI [4]: 1800 M⁻¹ s⁻¹
- Kinact/KI [5]: 110000 M⁻¹ s⁻¹
Molecule: Z-Arg-Lys-AOMK (peptide)

- IC50 of inhibition of cathepsin B activity (Z-Phe-Arg-AMC substrate, no pre-incubation), pH 4.6 [2]: 1100 nM
- IC50 of inhibition of cathepsin B activity (Z-Phe-Arg-AMC substrate, no pre-incubation), pH 7.2 [2]: 320 nM
- IC50 of inhibition of enzyme activity, pH 4.6 [2]: 1100 nM
- IC50 of inhibition of enzyme activity, pH 7.2 [2]: 320 nM
- fold greater potency (IC50) for cathepsin B than for cathepsin C, pH 7.2 [2]: 38 fold
- fold greater potency (KI) at pH 7.2 compared to pH 4.6 [3]: 3.5 fold
- Kinact/KI [4]: 2000 M⁻¹ s⁻¹
- Kinact/KI [5]: 8200 M⁻¹ s⁻¹
Molecule: Z-Glu-Lys-AOMK (peptide)

- % inhibition of enzyme activity at 16,000 nM inhibitor, pH 4.6 (cathepsin X): 21%
- IC50 of inhibition of enzyme activity (MCA-Arg-Pro-Pro-Gly-Phe-Ser-Ala-Phe-Lys(Dnp)OH substrate), pH 4.6 (cathepsin X): > 16000 nM
- % inhibition of enzyme activity at 16,000 nM inhibitor, pH 4.6 [6]: 6%
- IC50 of inhibition of enzyme activity (Gly-Arg-AMC substrate), pH 4.6 [6]: > 16000 nM
- IC50 of inhibition of enzyme activity (Gly-Arg-AMC substrate), pH 7.2 [6]: 850 nM
- % inhibition of enzyme activity at 16,000 nM inhibitor, pH 7.2 [7]: 29%
- IC50 of inhibition of enzyme activity (Arg-AMC substrate), pH 7.2 [7]: > 16000 nM
- % inhibition of enzyme activity at 16,000 nM inhibitor, pH 7.2 [8]: 31%
- IC50 of inhibition of enzyme activity (Z-Phe-Arg-AMC substrate), pH 7.2 [8]: > 16000 nM
- % inhibition of enzyme activity at 16,000 nM inhibitor, pH 4.6 [9]: 32%
- IC50 of inhibition of enzyme activity (Z-Phe-Arg-AMC substrate), pH 4.6 [9]: > 16000 nM
- % inhibition of enzyme activity at 16,000 nM inhibitor, pH 4.6 [10]: 13%
- IC50 of inhibition of enzyme activity (Z-Phe-Arg-AMC substrate), pH 4.6 [10]: > 16000 nM
- IC50 of inhibition of enzyme activity (Z-Phe-Arg-AMC substrate), pH 7.2 [10]: 2200 nM
- % inhibition of enzyme activity at 16,000 nM inhibitor, pH 4.6 [11]: 63%
- IC50 of inhibition of enzyme activity (Z-Phe-Arg-AMC substrate), pH 4.6 [11]: > 16000 nM
- IC50 of inhibition of enzyme activity (Z-Phe-Arg-AMC substrate), pH 7.2 [11]: 440 nM
Molecule: Cbz-Arg-Lys-{AOMK} [Z-Arg-Lys-AOMK]

- IC50 of inhibition of enzyme activity (Gly-Arg-AMC substrate), pH 4.6 [6]: 8600 nM
- IC50 of inhibition of enzyme activity (Gly-Arg-AMC substrate), pH 7.2 [6]: 12000 nM
- % inhibition of enzyme activity at 16,000 nM inhibitor, pH 4.6 [8]: 10%
- IC50 of inhibition of enzyme activity (Z-Phe-Arg-AMC substrate), pH 4.6 [8]: > 16000 nM
- % inhibition of enzyme activity at 16,000 nM inhibitor, pH 4.6 [9]: 23%
- IC50 of inhibition of enzyme activity (Z-Phe-Arg-AMC substrate), pH 4.6 [9]: > 16000 nM
- % inhibition of enzyme activity at 16,000 nM inhibitor, pH 4.6 [10]: 26%
- % inhibition of enzyme activity at 16,000 nM inhibitor, pH 7.2 [10]: 30%
- IC50 of inhibition of enzyme activity (Z-Phe-Arg-AMC substrate), pH 4.6 [10]: > 16000 nM
- IC50 of inhibition of enzyme activity (Z-Phe-Arg-AMC substrate), pH 7.2 [10]: > 16000 nM
- % inhibition of enzyme activity at 16,000 nM inhibitor, pH 7.2 [11]: 10%
- IC50 of inhibition of enzyme activity (Z-Phe-Arg-AMC substrate), pH 4.6 [11]: 1900 nM
- IC50 of inhibition of enzyme activity (Z-Phe-Arg-AMC substrate), pH 7.2 [11]: > 16000 nM
Molecule: Cbz-Glu-Lys-{AOMK} [Z-Glu-Lys-AOMK]
